The source of these data is US20210395323A1 (UNIVERSIT T STUTTGART, published 2021).

Test [1] deals with T1, TNFR2 on human cells (Kym-1 cells; human CD3+ T cells) (human, UniProt P20333 23-461).
T1 sequence (looked up): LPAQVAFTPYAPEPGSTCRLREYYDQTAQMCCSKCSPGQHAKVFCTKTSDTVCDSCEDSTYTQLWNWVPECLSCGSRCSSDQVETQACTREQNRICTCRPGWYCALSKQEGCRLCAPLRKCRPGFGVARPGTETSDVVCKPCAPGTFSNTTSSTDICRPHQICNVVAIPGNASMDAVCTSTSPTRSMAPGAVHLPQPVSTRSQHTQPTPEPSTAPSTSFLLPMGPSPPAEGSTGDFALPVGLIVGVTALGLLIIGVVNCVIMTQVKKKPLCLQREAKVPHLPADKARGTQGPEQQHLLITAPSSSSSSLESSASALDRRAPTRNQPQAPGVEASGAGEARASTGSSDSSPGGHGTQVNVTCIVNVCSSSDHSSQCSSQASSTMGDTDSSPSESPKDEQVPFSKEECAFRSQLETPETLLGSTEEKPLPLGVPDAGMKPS
Nature of the test: cell-based or functional assay.

The target in test [2] is T1, TNFR2 on human cells (Kym-1 cells; …). Nature of the test: cell-based or functional assay. This is another data set of the same source.
The target in test [3] is T2, human TNFR2-Fc fusion protein (human, UniProt P20333 23-257).
T2 construct: also called huTNFR2-Fc; huTNFR2
T2 sequence (looked up): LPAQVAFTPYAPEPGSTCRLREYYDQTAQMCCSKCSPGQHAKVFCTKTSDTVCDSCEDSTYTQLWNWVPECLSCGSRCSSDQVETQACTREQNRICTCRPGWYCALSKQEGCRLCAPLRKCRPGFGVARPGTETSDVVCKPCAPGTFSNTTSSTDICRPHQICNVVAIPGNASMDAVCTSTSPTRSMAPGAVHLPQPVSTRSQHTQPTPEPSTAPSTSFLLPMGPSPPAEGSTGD
In words: ELISA, huTNFR2-Fc coated at 1 µg/ml, bound protein detected with anti-TNF F6C5. The procedure:
ELISA plates (Greiner, Frickenhausen, Germany) were coated with huTNFR1-Fc, mTNFR1-Fc, huTNFR2-Fc or mTNFR2-Fc fusion proteins at 1 μg/ml in PBS and incubated at 4° C. overnight. Residual binding sites were blocked with 2% skim milk powder in PBS at RT for 2 hours. ScTNFR2 and the complexes were diluted in 2% skim milk powder in PBS and added at concentrations in the range of 10⁻³ to 10 nM and incubated for 1 hour at RT. Between each step, non-bound proteins were removed by washing 4 times with 0.005% Tween-20 in PBS.
Bound proteins were detected with mouse monoclonal antibodies to TNF (clone F6C5; 1 μg/ml; incubation for 1 hour at RT) and HRP-conjugated anti-mouse IgG antibodies (diluted 1:10000; incubation for 1 hour at RT), followed by incubation with tetramethylbenzidine (TMB) substrate solution. Reaction was stopped by addition of 1 M H₂SO₄ and the absorbance at 450 nm was determined with a Multiskan FC absorbance reader (Thermo Scientific, Karlsruhe, Germany) and data were analyzed using the software Microsoft Excel and GraphPad Prism 4 (GraphPad, La Jolla, Calif.) (FIG. 5). In Table 3, the calculated EC₅₀ values for the binding of TNF, scTNFR2 and the complexes to immobilized huTNFR2 and mTNFR2 based on the ELISA assay are summarized.

B1: EHD2-scTNFR2 (human) (ligand)
chain: DFTPPTVKILQSSCDGGGHFPPTIQLLCLVSGYTPGTINITWLEDGQVMDVDLSTASTTQEGELASTQSELTLSQKHWLSDRTYTCQVTYQGHTFEDSTKKCADSNGGGSGGGSGGGSGGGSGGGSGGSEFLASSRTPSDKPVAHVVANPQAEGQLQWLNRRANALLANGVELRDNQLVVPSEGLYLIYSQVLFKGQGCPSTHVLLTHTISRIAVSYQTKVNLLSAIKSPCQRETPEGAEAKPWYEPIYLGGVFQLEKGDRLSAEINRPDYLNFRESGQVYFGIIALGGGGSSSRTPSDKPVAHVVANPQAEGQLQWLNRRANALLANGVELRDNQLVVPSEGLYLIYSQVLFKGQGCPSTHVLLTHTISRIAVSYQTKVNLLSAIKSPCQRETPEGAEAKPWYEPIYLGGVFQLEKGDRLSAEINRPDYLNFRESGQVYFGIIALGGGGSSSRTPSDKPVAHVVANPQAEGQLQWLNRRANALLANGVELRDNQLVVPSEGLYLIYSQVLFKGQGCPSTHVLLTHTISRIAVSYQTKVNLLSAIKSPCQRETPEGAEAKPWYEPIYLGGVFQLEKGDRLSAEINRPDYLNFRESGQVYFGIIAL
notes: Hexavalent dimer of two subunits; also called hexavalent EHD2-scTNFR2
For the molecule B1, the “EC50 of Kym-1 cell viability (crystal violet assay after 16 h)” value in test [1] was 37000 nM. For the same molecule, in test [2], the “EC50 values (nM) of cell death induction using Kym-1 cells” value came to 0.0126 nM. Besides, in test [3], it took 0.508 nM to reach a half-maximal effect (EC50).
